T1: human CD96 short isoform v2 expressed on CHO cells (human, UniProt P40200 22-585)
T1 construct: also called hCD96v2; CD96v2; not shown: C-terminal HA-tag
T1 sequence: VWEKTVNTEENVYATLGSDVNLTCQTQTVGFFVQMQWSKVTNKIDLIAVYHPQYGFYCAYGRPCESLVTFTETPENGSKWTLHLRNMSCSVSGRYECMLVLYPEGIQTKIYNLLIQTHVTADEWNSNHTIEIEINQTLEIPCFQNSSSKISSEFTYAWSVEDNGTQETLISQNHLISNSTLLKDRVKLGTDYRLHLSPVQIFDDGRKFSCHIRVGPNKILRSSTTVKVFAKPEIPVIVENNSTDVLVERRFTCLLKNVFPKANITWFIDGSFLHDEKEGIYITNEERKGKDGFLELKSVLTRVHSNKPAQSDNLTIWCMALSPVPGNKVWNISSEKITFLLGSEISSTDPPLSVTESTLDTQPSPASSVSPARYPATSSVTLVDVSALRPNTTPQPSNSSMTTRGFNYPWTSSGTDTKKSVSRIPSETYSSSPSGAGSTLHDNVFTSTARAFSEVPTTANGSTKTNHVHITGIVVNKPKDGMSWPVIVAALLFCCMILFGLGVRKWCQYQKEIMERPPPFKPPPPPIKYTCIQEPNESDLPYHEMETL

T2: mouse CD96 expressed on CHO cells (mouse, UniProt Q3U0X8 22-602)
T2 construct: whole, on cells; also called mCD96
T2 sequence (looked up): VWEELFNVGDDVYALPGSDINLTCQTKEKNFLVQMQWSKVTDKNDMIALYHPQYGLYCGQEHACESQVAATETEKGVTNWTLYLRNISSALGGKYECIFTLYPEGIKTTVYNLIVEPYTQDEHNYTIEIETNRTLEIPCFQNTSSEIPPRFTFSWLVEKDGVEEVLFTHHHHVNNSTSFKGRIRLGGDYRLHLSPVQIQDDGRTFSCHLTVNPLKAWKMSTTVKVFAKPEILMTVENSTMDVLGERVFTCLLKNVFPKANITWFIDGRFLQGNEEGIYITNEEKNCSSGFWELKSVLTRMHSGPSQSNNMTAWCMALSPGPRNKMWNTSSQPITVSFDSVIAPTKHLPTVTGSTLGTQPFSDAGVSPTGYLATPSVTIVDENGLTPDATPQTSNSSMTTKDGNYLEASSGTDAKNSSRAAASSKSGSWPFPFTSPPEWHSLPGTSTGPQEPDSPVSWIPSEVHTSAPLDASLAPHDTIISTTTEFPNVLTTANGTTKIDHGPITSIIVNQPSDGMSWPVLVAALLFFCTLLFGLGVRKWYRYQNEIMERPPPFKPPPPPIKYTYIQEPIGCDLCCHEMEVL

T3: rhesus CD96 transiently expressed on CHO cells (rhesus, UniProt P40200 22-585 (human entry))
T3 construct: also called rhesus CD96, short isoform
T3 chain: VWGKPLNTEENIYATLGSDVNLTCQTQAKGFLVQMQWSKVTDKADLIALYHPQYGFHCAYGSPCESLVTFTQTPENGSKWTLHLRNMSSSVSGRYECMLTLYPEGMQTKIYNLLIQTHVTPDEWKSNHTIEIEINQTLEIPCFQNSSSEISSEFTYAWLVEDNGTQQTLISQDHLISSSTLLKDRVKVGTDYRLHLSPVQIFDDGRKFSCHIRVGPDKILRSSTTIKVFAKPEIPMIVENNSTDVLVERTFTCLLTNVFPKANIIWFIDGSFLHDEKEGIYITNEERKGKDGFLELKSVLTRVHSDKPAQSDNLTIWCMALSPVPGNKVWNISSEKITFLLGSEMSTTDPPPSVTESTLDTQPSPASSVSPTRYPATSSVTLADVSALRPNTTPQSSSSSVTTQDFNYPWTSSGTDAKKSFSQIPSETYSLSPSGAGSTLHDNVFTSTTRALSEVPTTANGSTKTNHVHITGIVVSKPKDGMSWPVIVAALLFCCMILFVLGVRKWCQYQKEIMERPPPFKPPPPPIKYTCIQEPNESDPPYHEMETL

B1: BL006-8-3G9-3K4 (antibody, V domains shown)
VH: QVQLQQSGAELVRPGASVKLSCKASGYRFTDYEMEWVKQTPVHGLEWIGAIDPETGGTAYNQKFKGKATVTADKSSRTAYMELRSLTSEDSAVYYCTREGDGSYGAYWGQGTLVTVSA
VL: DVMMTQTPLSLPVSLGDQASISCRSSQSIVYSNGNTYLEWYLQKPGQSPKLLMYKVSNRFSGVPDRFSGSGSGTDFTLKISRVEAEDLGVYYCFQGSHAPWTFGGGTKLEIK
notes: Recombinant mIgG2a/kappa (also made as mIgG2a-D265A); also called BL006-8-3G9-3K4 #6; candidate NO 4
B2: BL006-19-14G3-14K1 (antibody, V domains shown)
VH: QVTLKESGPGILQPSQTLSLTCSFSGFSLDTFGMGVGWIRQSSGKGLEWLAHIWWDDDKFYNPALKSRLTVSKDTSKNQVFLKIANVDTADTATYYCAHYYGSLSFDVWGTGTTVTVSS
VL: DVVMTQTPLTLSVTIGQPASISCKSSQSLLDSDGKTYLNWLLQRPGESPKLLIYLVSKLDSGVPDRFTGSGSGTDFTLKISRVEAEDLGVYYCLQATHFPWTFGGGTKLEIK
notes: Recombinant mIgG2a/kappa (also made as mIgG2a-D265A); also called BL006-19-14G3-14K1 #8; candidate NO 6
B3: BL006-19-190G4-190K6 (antibody, V domains shown)
VH: EVQLVESGGGLVQPGGSLKLSCAASGFTFSNYGMSWVRQTPDKRLELVATINSNGGSTYYPDSVKGRFTISRDNAKNTLYLQMSSLKSEDTAMYYCTKRGAWYFDVWGTGTTVTVSS
VL: DIQMTQSSSSFSVSLGDRVTITCKASEDIYNRLAWYQQKPGNAPRLLISSATSLETGVSSRFSGSGSGKDYTLSITSLQTEDVATYYCQQYWTTPTWTFGGGTKLEIK
notes: Recombinant mIgG2a/kappa (also made as mIgG2a-D265A); also called candidate NO 16
B4: BL006-19-29G5-29K1 (antibody, V domains shown)
VH: QVTLKESGPGILQSSQTLSLTCSFSGFSLSTFGMGVSWIRKPSGKGLEWLAHIFWDDDKRYNPSLKSRLTISKDTSSNQVFLMINSMDIADTATYYCTRGSNWFAYWGQGTLVTVSA
VL: DIVLTQSPASLAVSLGQRATISCRASESVDSYGNSFMHWYQQKPGQPPKLLIYRASNLESGIPARFSGSGSRTDFTLTINPVEADDVATYYCQQSNEDPLTFGAGTKLELK
notes: Recombinant mIgG2a/kappa (also made as mIgG2a-D265A); also called candidate NO 14

Legend:
[1] = biological target: T1, human CD96 short isoform v2 expressed …; test: FCM on hCD96v2-CHO cells
Method: FIG. 6: Binding profiles of anti-hCD96 antibodies on human CD96-transfected CHO cells (hCD96v2, short isoform). CHO cells expressing hCD96v2 were incubated with serial dilution of the indicated mIgG1 or mIgG2a anti-CD96 or isotype control antibodies. […] The results are expressed as the difference of mean fluorescence intensity (delta MFI) between cells stained with antibodies and cells without antibodies. Dose response curves were obtained from GraphPad prism software using a non-linear regression fit with a variable slope model (4 parameters). To simplify the reading, results from the various anti-hCD96 candidates are shown on 4 different panels.
The capacity of the identified mouse anti-CD96 antibodies to recognize the cell membrane expressed human CD96 was further analyzed by flow cytometry (FCM) by using CHO cells stably transfected with the CD96 short isoform v2 (CD96v2; Genbank accession number NM_005816, flanked in C-terminus with HA-tag) (SEQ ID NO: 268).
Mouse anti-CD96 antibodies and isotype control antibodies were incubated at various concentrations from 10 μg/mL to 4.6 ng/mL with CHO cells expressing human CD96 at +4° C. for 30 minutes. […] The differences between the mean fluorescence intensity (MFI) obtained for each of the antibody concentration and the intensity obtained in absence of primary antibody (delta-MFI), were calculated and plotted against the concentrations of antibodies.

[2] = biological target: T2, mouse CD96 expressed on CHO cells; test: FCM on CHO cells expressing mouse CD96
Description: (§1) The capacity of the identified mouse anti-human CD96 antibodies to recognize the CD96 protein from other species was further analyzed by flow cytometry by using CHO cells expressing the mouse or the rhesus CD96. The expression of the species-specific CD96 on CHO cell surface was confirmed by using staining with appropriate anti-CD96 antibodies and flow cytometry on non-fixed cells. The rat anti-mCD96 antibody clone #630612 (R&D Systems) and the candidate BL006-9-1 (positive by ELISA on rhesus CD96) were used to confirm the expression of rhesus CD96, while the clone 6A6 (rat IgG2a, e-Bioscience) was used to verify the expression of mouse CD96.
(§2) Mouse anti-CD96 antibodies and isotype control antibodies were incubated at 10 or 1 μg/mL with CHO cells expressing different CD96 species at +4° C. for 30 minutes.

[3] = biological target: T3, rhesus CD96 transiently expressed on …; test: flow cytometry on CHO cells transiently expressing rhesus CD96; antibody at 1 (thin line) and 10 µg/ml (thick dashed line), filled grey = isotype control
Method: FIG. 7: Binding profiles of anti-CD96 antibodies on CHO cells transfected with rhesus CD96. Anti-CD96 antibodies or the corresponding isotype control mAbs were tested for their capacity to recognize rhesus CD96 transiently expressed on CHO cells by flow cytometry. Each histogram represents the overlay of the fluorescence intensity obtained for each antibody tested at 1 (black line) and 10 μg/ml (thick dashed black line) and compared to the fluorescence obtained with an isotypic control (filled grey histogram).
as §1, §2

[4] = biological target: T1, human CD96 short isoform v2 expressed …; test: FCM, inhibition of hCD155-Fc binding to hCD96v2-CHO cells
Method: (§3) All candidates except BL006-2-19 that bound very weakly on hCD96v2 by FCM were tested for their capacity to inhibit the binding of human CD155 to hCD96v2 stably expressed on CHO cells. Human CD96-transfected CHO cells (3×10⁵ cells/well of 96-well plate) were incubated at +4° C. for 30 minutes with serial dilutions of anti-CD96 antibodies or isotype control antibody (in mIgG2a or mIgG2aD265A format) in the presence of 4 μg/mL of biotinylated hCD155-Fc (produced and biotinylated at BliNK).
(§4) % inhibition=(1−(MFI_wAb&CD155−MFI_CHO)/(MFI_wCD155−MFI_CHO))×100, where MFI_wAb&CD155 is the Mean Intensity Fluorescence (MFI) obtained with the hCD96-CHO cells incubated with the tested antibody and hCD155-hFc; MFI_CHO is the MFI obtained in the absence of hCD155 and mAbs; and MFI_wCD155 is the fluorescence with hCD155 but without pre-incubation with antibody (0% CD155 binding inhibition). The % of inhibition was plotted against antibody concentration and the IC50 values were calculated by using a nonlinear regression analysis model of the GraphPad Prism software.

[5] = biological target: T1, human CD96 short isoform v2 expressed …; test: FCM, inhibition of hCD155-Fc binding to hCD96v2-CHO cells; relative IC50
Method: as §3, §4

Row | Binder | EC50 [1] | Maximum binding (delta MFI) [1] | binding result [2] | binding result [3] | Maximal Inhibition Capacity (%) [4] | IC50 [5] | IC50 [4]
1 | B1 | 4.68 nM | 235000 delta MFI | no binding (tested: 1 and 10 µg/mL) | no binding (tested: 10 µg/ml) | < 5% |  | 
2 | B2 | 3.1 nM | 694000 delta MFI | no binding (tested: 1 and 10 µg/mL) | binds | 41.4% | 2.67 nM | 
3 | B3 | 3.39 nM | 711000 delta MFI | no binding (tested: 1 and 10 µg/mL) | no binding (tested: 10 µg/ml) | 98.1% |  | 11.5 nM
4 | B4 | 2.98 nM | 753000 delta MFI | no binding (tested: 1 and 10 µg/mL) | binds | 43.1% | 5.24 nM | 

From patent publication US20230192845A1 (BLINK BIOMEDICAL, published 2023)
